First the molecules themselves.
B1: Peroxisome proliferator-activated receptor alpha (Homo sapiens), Q07869 (parent)
chain: MVDTESPLCPLSPLEAGDLESPLSEEFLQEMGNIQEISQSIGEDSSGSFGFTEYQYLGSCPGSDGSVITDTLSPASSPSSVTYPVVPGSVDESPSGALNIECRICGDKASGYHYGVHACEGCKGFFRRTIRLKLVYDKCDRSCKIQKKNRNKCQYCRFHKCLSVGMSHNAIRFGRMPRSEKAKLKAEILTCEHDIEDSETADLKSLAKRIYEAYLKNFNMNKVKARVILSGKASNNPPFVIHDMETLCMAEKTLVAKLVANGIQNKEAEVRIFHCCQCTSVETVTELTEFAKAIPGFANLDLNDQVTLLKYGVYEAIFAMLSSVMNKDGMLVAYGNGFITREFLKSLRKPFCDIMEPKFDFAMKFNALELDDSDISLFVAAIICCGDRPGLLNVGHIEKMQEGIVHVLRLHLQSNHPDDIFLFPKLLQKMADLRQLVTEHAQLVQIIKKTESDAALHPLLQEIYRDMY

The values below come from IntAct's records for PubMed 19955185.

This test covers variants of B1. The conditions noted are these: with ncor1_human NCOR1, O75376.
ncor1_human NCOR1, O75376, sequence (O75376 whole entry): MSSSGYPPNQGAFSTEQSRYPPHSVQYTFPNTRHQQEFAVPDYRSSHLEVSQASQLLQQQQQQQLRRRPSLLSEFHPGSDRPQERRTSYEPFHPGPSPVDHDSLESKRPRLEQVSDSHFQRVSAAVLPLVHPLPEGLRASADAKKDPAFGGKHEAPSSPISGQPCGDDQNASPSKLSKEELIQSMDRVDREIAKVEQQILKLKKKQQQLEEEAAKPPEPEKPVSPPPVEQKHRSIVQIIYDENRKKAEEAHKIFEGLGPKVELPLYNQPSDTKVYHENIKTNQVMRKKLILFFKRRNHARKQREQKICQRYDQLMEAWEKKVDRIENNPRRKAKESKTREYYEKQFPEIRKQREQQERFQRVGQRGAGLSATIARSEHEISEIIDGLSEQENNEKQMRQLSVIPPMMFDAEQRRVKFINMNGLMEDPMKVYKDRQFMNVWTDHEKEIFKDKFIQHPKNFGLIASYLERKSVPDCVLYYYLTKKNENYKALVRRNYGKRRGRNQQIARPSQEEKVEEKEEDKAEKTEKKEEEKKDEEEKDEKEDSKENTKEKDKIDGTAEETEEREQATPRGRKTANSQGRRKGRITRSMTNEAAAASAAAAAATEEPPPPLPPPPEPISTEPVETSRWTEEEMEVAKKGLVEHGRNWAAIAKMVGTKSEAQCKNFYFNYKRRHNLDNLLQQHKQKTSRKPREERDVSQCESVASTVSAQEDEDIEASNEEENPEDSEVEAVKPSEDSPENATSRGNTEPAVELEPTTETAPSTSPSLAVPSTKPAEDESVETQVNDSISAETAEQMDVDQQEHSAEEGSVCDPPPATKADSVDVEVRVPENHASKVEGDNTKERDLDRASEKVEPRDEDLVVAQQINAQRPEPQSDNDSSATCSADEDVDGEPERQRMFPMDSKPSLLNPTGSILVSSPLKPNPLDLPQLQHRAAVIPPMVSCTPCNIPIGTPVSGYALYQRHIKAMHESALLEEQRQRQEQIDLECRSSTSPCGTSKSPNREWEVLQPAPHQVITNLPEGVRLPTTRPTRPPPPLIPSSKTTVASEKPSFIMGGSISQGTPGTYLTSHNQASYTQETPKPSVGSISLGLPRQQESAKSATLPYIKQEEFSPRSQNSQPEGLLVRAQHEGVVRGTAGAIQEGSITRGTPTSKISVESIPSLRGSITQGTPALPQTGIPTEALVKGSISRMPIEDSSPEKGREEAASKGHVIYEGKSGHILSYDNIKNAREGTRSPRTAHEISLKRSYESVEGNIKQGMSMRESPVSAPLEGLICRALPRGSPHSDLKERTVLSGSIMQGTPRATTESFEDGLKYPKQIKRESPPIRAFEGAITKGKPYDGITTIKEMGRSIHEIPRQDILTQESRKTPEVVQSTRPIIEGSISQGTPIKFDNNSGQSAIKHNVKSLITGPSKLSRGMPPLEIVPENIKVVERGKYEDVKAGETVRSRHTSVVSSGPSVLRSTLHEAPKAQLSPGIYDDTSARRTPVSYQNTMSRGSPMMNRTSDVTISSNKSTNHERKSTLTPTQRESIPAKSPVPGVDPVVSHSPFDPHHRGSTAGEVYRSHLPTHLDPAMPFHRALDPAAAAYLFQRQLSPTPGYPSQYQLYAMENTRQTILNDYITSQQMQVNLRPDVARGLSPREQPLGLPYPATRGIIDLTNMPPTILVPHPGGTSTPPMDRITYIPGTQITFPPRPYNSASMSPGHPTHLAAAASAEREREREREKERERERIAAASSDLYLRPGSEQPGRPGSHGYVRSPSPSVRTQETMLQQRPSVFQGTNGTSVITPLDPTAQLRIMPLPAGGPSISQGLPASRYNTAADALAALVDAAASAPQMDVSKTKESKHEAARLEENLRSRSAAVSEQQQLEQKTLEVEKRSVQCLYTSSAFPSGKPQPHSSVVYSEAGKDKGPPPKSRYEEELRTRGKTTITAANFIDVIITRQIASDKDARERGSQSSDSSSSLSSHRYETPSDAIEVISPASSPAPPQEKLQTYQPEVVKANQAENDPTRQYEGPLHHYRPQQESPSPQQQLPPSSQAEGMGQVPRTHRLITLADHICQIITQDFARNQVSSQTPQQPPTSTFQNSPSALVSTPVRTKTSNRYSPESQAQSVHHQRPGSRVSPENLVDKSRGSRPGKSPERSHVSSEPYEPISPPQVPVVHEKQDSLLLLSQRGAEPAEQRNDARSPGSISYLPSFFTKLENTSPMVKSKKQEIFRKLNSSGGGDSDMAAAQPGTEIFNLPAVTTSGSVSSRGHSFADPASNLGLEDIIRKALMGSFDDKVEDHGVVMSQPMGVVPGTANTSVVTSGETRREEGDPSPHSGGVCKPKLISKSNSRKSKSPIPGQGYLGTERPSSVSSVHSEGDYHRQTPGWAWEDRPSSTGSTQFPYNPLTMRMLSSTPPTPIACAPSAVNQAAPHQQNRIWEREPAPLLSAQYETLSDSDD
As for K185R, the “effect of a mutation on the interaction” value is recorded as “decreasing interaction”.
